Assay: Tf-DAK-PEG-OPSS degradation in pH 5.5 buffer followed by MALDI-TOF
Type: physicochemical
Conditions: 37° C., crude mixture
Method: At various time points, aliquots were removed, diluted 1:10 in 10 mM NaH2PO4 pH 8.0 and frozen on CO2(s). Once the last aliquot was removed, all samples were melted and immediately measured by MALDI-TOF using a sinapinic acid matrix.

**Q.** Which “Time by which nearly all the PEG has cleaved” value does the source give for “Tf-DAK-PEG-OPSS: human holo-Tf conjugated through diamino ketal (DAK) linker to PEG-orthopyridyl disulfide” here?
**A.** ≤ 2 h

— patent publication US10182986B2, “Method of delivering therapeutics and imaging agents to the brain by nanoparticles that cross the blood brain barrier” (CALIFORNIA INSTITUTE OF TECHNOLOGY, priority 2013, dated 2019)
